According to PMC6965647:

Target: heat shock protein 90 (human (endogenous in brain tissue)) (UniProt P07900)
Test: native gel or EMSA; human brain homogenates (AD and ND) on 4–10% native gradient gel at 4 °C, immunoblot

Work on “heat shock protein 90 (from UniProt P07900 1-732) (natural protein)” yielded a stoichiometry N of 2.
